In patent US20230051715A1 (MABWELL THERAPEUTICS, published 2023):
Changes are numbered by the printed parent chain. Names may count otherwise.

Experiments:
[1] = target: T1, full-length human C1s (produced in house) (human, UniProt P09871 16-688); test: ELISA, plate coated with 200 ng/well full-length HuC1s, OD450nm
T1 construct: Called full-length; Partly auto-cleaved at R422-I423 on blots; also called HuC1s; Hu C1s
T1 sequence: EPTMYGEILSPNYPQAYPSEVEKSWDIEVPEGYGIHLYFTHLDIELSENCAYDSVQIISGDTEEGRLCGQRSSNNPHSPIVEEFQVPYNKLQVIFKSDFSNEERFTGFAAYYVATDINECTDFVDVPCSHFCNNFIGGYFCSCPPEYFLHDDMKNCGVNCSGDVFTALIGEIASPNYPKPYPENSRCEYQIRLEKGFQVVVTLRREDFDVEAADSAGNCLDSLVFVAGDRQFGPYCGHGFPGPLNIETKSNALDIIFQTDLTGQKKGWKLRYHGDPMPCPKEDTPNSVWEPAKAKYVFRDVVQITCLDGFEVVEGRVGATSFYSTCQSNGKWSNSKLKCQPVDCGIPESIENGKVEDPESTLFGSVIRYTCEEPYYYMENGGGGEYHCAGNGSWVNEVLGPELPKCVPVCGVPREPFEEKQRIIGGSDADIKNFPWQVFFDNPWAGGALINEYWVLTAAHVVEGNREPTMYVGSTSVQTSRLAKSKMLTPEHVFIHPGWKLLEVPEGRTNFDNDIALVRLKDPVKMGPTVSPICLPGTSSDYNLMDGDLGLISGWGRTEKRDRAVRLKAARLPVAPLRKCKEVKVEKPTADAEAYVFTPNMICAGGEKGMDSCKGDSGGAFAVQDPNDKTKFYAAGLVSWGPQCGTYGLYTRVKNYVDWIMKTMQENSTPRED
Protocol: (§1) ELISA was carried out by first coating 96-well plates with 200 ng/well of full-length or truncated C1s proteins overnight. The next morning, plates were blocked with SuperBlock T20 blocking buffer (Thermo Scientific 37536) for 1 h with gentle shaking. Then, various concentrations of anti-C1s antibodies diluted in SuperBlock T20 blocking buffer were added to the plates and incubated for 1 h with gentle shaking. Mouse IgG (Sigma-Aldrich 15381) and human IgG1 (BioXCell BP0297) were used as negative controls. The plates were washed before incubating with HRP conjugated secondary antibodies diluted in SuperBlock T20 blocking buffer (goat anti-mouse IgG (H+L) cross-adsorbed secondary antibody HRP (Invitrogen G-21040) or goat anti-human IgG antibody, HRP conjugate (Millipore AP309P)) for 1 h with gentle shaking. At last, the plates were washed and color developed with ELISA liquid HRP substrate (Sigma-Aldrich), followed by stopping the reaction with addition of 1M H₂SO₄ in the same volume as the ELISA liquid substrate. Bound antibody was measured by absorbance at OD₄₅₀ₙₘ.

[2] = target: T2, human C1s mutant M7 (D343Y & E351A) (human, UniProt P09871 16-688); test: ELISA, plate coated with human C1s mutant M7: D343Y, E351A, OD450nm
T2 construct: The entry is the mutant itself
T2 sequence: T1 sequence with D343Y, E351A
Protocol: as §1
(§2) Binding of anti-C1s antibodies to mutants M1-M20 of human C1s was measured by ELISA as described in Example 4, and results are shown in FIGS. 6B-6U. All anti-C1s humanized variants including hz2-7(H1L2), hz2-8(H1L2 G80A) and hz2-8(H1L2 G80A/T82A) maintained strong binding properties to the majority (16 out of 20) of C1s mutants including M1 (FIG. 6B), M2 (FIG. 6C), M3 (FIG. 6D). M4 (FIG. 6E), M7 (FIG. 6H), M8 (FIG. 6I), M10 (FIG. 6K), M11 (FIG. 6L), M12 (FIG. 6M), M13 (FIG. 6N), M15 (FIG. 6P), M16 (FIG. 6Q), M17 (FIG. 6R), M18 (FIG. 6S), M19 (FIG. 6T) and M20 (FIG. 6U).

[3] = target: T3, human C1s mutant M8 (E351A) (human, UniProt P09871 16-688); test: ELISA, plate coated with human C1s mutant M8: E351A, OD450nm
T3 construct: The entry is the mutant itself
T3 sequence: T1 sequence with E351A
Protocol: as §1, §2

B1: Anti-C1s antibody 2-7 (antibody, human IgG1, kappa, V domains shown)
VH: EVKLEESGGGLVPPGGSMKLSCVASGFTFSNYFMNWVRQSPEKGLEWVAEIRLKFTNYATHYAESVEGRFTISRDDSKSSVYLQMNNLRAEDTGIYYCTRDYGSRNGYFDYWGQGTTLTVSS
VL: DIVMTQAAPSVPVTPGESVSISCRSSKSLLHSNGNTFLYWFLQRPGQSPQLLIYRMSNLASGVPDRFSGSGSGTAFTLRVSRVEAEDVGIYYCMQHLEYPYTFGGGTKLEIKT
notes: the HC/LC entries may hold it too; also called clone 2-7
[1]
  EC50: 0.006 µg/mL

B2: Anti-C1s antibody 2-8 (antibody, V domains shown)
VH: EVQLQQSGAELVRPGALVKLSCKASGFNIKEYYMHWVKQRPEQGLEWIGWIDPENGDTIYDPKFQGKASITADTSSNTAYLQLSSLTSEDTAVYYCARSRLFFAYWGQGTLVTVSA
VL: DIVMTQSHKFMSTSVGDRVSFTCKASQDVRTAVDWYQQKPGQSPKLLIYSASYRYTGVPDRFTGTGSGTDFTFTISSVQAEDLAVYFCQQQYTTPYTFGGGTKLEIKT
notes: the HC/LC entries may hold it too; also called clone 2-8
[1]
  EC50: 0.008 µg/mL

B3: Anti-C1s antibody hz2-7(H1L2) (antibody, V domains shown)
VH: EVQLLESGGGLVQPGGSLRLSCAASGFTFSNYFMNWVRQAPGKGLEWVSEIRLKFTNYATHYADSVKGRFTISRDDSKSTLYLQMNSLRAEDTAVYYCTRDYGSRNGYFDYWGQGTLVTVSS
VL: DIVMTQTPLSLPVTPGEPASISCRSSKSLLHSNGNTFLYWFLQKPGQSPQLLIYRMSNLASGVPDRFSGSGSGTDFTLKISRVEAEDVGVYYCMQHLEYPYTFGGGTKLEIKR
notes: Humanized, human IgG1 / kappa; also called hz2-7(1L2)
[2]
  EC50: 0.015 µg/mL
[3]
  EC50: 0.016 µg/mL
[1]
  EC50: 0.005 µg/mL

B4: Anti-C1s antibody hz2-8 (H1L2 G80A) (antibody, V domains shown)
VH: QVQLVQSGAEVKKPGASVKVSCKASGFNIKEYYMHWVRQAPEQGLEWMGWIDPENADTIYAQKFQGRVTITADTSTNTAYMELSSLRSEDTAVYYCARSRLFFAYWGQGTLVTVSS
VL: DIQMTQSPKSLSASVGDRVTITCRASQDVRTALDWYQQKPGQSPKLLIYSASYRYSGVPSRFSGSGSGTDFTLTISSLQPEDFATYYCQQQYTTPYTFGQGTKLEIKR
notes: Humanized variant with G80A in HC CDR2 (already in the entry), human IgG1 / kappa
[2]
  EC50: 0.012 µg/mL
[3]
  EC50: 0.01 µg/mL

B5: Anti-C1s antibody hz2-8 (H1L2 G80A/T82A) (antibody, V domains shown)
VH: B4 VH with T58A
VL: B4 VL
notes: Humanized variant with G80A and T82A in HC CDR2 (already in the entry), human IgG1 / kappa
[2]
  EC50: 0.011 µg/mL
[3]
  EC50: 0.011 µg/mL
